In patent US20140030416A1:

Legend:
Assay in all cases: cell-based or functional assay
[1] = target: Trypsin-like protease (TL1) from Fusarium oxysporum (Fusarium oxysporum) (UniProt P35049)
[2] = target: porcine trypsin (porcine) (UniProt P00761)
bovine trypsin (bovine) = bovine trypsin (bovine) (UniProt P00760)

Chain of UniProt P35049 (P35049 25-248 limits assumed): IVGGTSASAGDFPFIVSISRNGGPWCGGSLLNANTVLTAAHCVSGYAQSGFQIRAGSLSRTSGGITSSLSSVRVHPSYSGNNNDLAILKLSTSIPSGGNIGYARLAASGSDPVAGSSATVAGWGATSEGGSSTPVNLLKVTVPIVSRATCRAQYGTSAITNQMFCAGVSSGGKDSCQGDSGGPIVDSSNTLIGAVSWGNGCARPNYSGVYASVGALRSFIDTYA

Substance “Bowman-Birk inhibitor (Cat # T-9777, Sigma-Aldrich) (from UniProt P01055 40-110)” has a % residual activity at 0.00048 mg/ml Bowman-Birk inhibitor [1] of 117%, a % residual activity at 0.00097 mg/ml Bowman-Birk inhibitor [1] of 111% and a % residual activity at 0.00195 mg/ml Bowman-Birk inhibitor [1] of 103%. The % residual activity at 0.0039 mg/ml Bowman-Birk inhibitor [1] was 109%, the % residual activity at 0.0078 mg/ml Bowman-Birk inhibitor [1] was 82% and the % residual activity at 0.0156 mg/ml Bowman-Birk inhibitor [1] was 61%. The % residual activity at 0.0313 mg/ml Bowman-Birk inhibitor [1] was 32%, the % residual activity at 0.0625 mg/ml Bowman-Birk inhibitor [1] was 13% and the % residual activity at 0.125 mg/ml Bowman-Birk inhibitor [1] was 5.8%. The % residual activity at 0.25 mg/ml Bowman-Birk inhibitor [1] was 2.2%, the % residual activity at 0.5 mg/ml Bowman-Birk inhibitor [1] was 0.8% and the % residual activity at 0.00048 mg/ml Bowman-Birk inhibitor [2] was 11%. It also gave a % residual activity at 0.00097 mg/ml Bowman-Birk inhibitor [2] of 9.4%, a % residual activity at 0.00195 mg/ml Bowman-Birk inhibitor [2] of 8.3% and a % residual activity at 0.0039 mg/ml Bowman-Birk inhibitor [2] of 6.2%. The % residual activity at 0.0078 mg/ml Bowman-Birk inhibitor [2] was 3.2%, the % residual activity at 0.0156 mg/ml Bowman-Birk inhibitor [2] was 2.2% and the % residual activity at 0.0313 mg/ml Bowman-Birk inhibitor [2] was 1%. The % residual activity at 0.0625 mg/ml Bowman-Birk inhibitor [2] was 6.4%, the % residual activity at 0.125 mg/ml Bowman-Birk inhibitor [2] was 0.2% and the % residual activity at 0.25 mg/ml Bowman-Birk inhibitor [2] was 0.1%. It also gave a % residual activity at 0.5 mg/ml Bowman-Birk inhibitor [2] of 0.1%, a % residual activity at 0.00048 mg/ml Bowman-Birk inhibitor (bovine trypsin (bovine)) of 6.9% and a % residual activity at 0.00097 mg/ml Bowman-Birk inhibitor (bovine trypsin (bovine)) of 5.3%. The % residual activity at 0.00195 mg/ml Bowman-Birk inhibitor (bovine trypsin (bovine)) was 0.1%, the % residual activity at 0.0039 mg/ml Bowman-Birk inhibitor (bovine trypsin (bovine)) was -0.4% and the % residual activity at 0.0078 mg/ml Bowman-Birk inhibitor (bovine trypsin (bovine)) was 0%. It also gave a % residual activity at 0.0156 mg/ml Bowman-Birk inhibitor (bovine trypsin (bovine)) of -1.5%, a % residual activity at 0.0313 mg/ml Bowman-Birk inhibitor (bovine trypsin (bovine)) of 0.1% and a % residual activity at 0.0625 mg/ml Bowman-Birk inhibitor (bovine trypsin (bovine)) of 0%. For the same substance, the % residual activity at 0.125 mg/ml Bowman-Birk inhibitor (bovine trypsin (bovine)) was 0%, the % residual activity at 0.25 mg/ml Bowman-Birk inhibitor (bovine trypsin (bovine)) was 0% and the % residual activity at 0.5 mg/ml Bowman-Birk inhibitor (bovine trypsin (bovine)) was 0%.
